Results: patent US20150174076A1, “MUCOADHESIVE DEVICES FOR DELIVERY OF ACTIVE AGENTS” (Entrega, Inc., priority 2012, published 2015)

System: Caco-2 monolayers
Experiment: Transport of FITC-insulin across Caco-2 monolayer
Format: in vitro ADME, human
Protocol: Caco-2 cell line HTB-37 (American Type Culture Collection, Rockville, Md.), derived from human colon cells, was used for all experiments. Cells were maintained at 37° C. in DMEM supplemented with 25 IU/ml of penicillin, 25 mg/L of streptomycin, 250 μg/L of amphotericin B and 100 ml/L of fetal bovine serum. Monolayers were grown on BD Biocoat™ collagen filter supports (Discovery Labware, Bedford. Mass.). […] At the end of the growth period, the integrity of the cell monolayer was confirmed by transepithelial electrical resistance (TEER) measurements (Millicell-ERS voltohmmeter, Millipore. Billerica, Mass.). Only monolayers with TEER values over 300 Ω cm^2 were used for further experimentation. A solution of FITC-insulin in DMEM was placed on Caco-2 monolayers at various concentrations and samples were collected from the basolateral side and analyzed for fluorescence. To determine insulin transport from wafers, FITC-insulin-containing wafers were placed on Caco-2 monolayers. Samples were taken from the basolateral side and analyzed for insulin concentration.

## insulin free in solution: solution of FITC-insulin in DMEM placed on Caco-2 monolayers
  transport of insulin across Caco-2 monolayers: dose-dependent
